The values that follow come from patent US20210364527A1 (QUANTUM SI, published 2021).

The labels stand for the following.
T1: LA peptide LAKLDEESILKQK (XAKLDEESILKQK, X = L)
T1 construct: Immobilized on the biolayer interferometry sensor
T1 peptide: LAKLDEESILKQK

T2: VA peptide VAKLDEESILKQK (XAKLDEESILKQK, X = V)
T2 construct: Immobilized on the biolayer interferometry sensor
T2 peptide: VAKLDEESILKQK

T3: F peptide FAKLDEESILKQK (XAKLDEESILKQK, X = F)
T3 construct: Immobilized on the biolayer interferometry sensor
T3 peptide: FAKLDEESILKQK

T4: IA peptide IAKLDEESILKQK (XAKLDEESILKQK, X = I)
T4 construct: Immobilized on the biolayer interferometry sensor
T4 peptide: IAKLDEESILKQK

T5: ClpS from Thermosynochoccus elongatus (teClpS) (Thermosynechococcus elongatus, UniProt Q8DJY3 6-94)
T5 construct: Dye-labelled or streptavidin-complexed depending on the assay; also called Thermosynechococcus elongatus ClpS
T5 sequence: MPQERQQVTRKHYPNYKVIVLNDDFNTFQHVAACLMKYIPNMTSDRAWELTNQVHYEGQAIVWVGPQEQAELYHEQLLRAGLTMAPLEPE

T6: KA peptide KAKLDEESILKQK (XAKLDEESILKQK, X = K)
T6 construct: Biolayer interferometry single-point screen of UBR-box homologs
T6 peptide: KAKLDEESILKQK

T7: MA
T7 chain: MAKLDEESILKQK

T8: Kluyveromyces lactis UBR-box domain (PS528) (Kluyveromyces lactis, UniProt O60014 101-182)
T8 construct: UBR-streptavidin complex in fluorescence polarization
T8 sequence: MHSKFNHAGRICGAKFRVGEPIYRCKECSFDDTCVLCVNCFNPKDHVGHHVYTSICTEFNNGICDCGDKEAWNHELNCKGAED

T9: RA peptide RAKLDEESILKQK (XAKLDEESILKQK, X = R)
T9 construct: Biolayer interferometry single-point screen of UBR-box homologs
T9 peptide: RAKLDEESILKQK

T10: Y peptide YAKLDEESILKQK (XAKLDEESILKQK, X = Y)
T10 construct: Immobilized on the biolayer interferometry sensor
T10 peptide: YAKLDEESILKQK

T11: FITC-labeled VA peptide VAKLDEESILKQK-FITC
T11 peptide: VAKLDEESILKQK-{FITC′}

T12: FITC-labeled YA peptide YAKLDEESILKQK-FITC
T12 peptide: YAKLDEESILKQK-{FITC′}

T13: FITC-labeled IA peptide IAKLDEESILKQK-FITC
T13 peptide: IAKLDEESILKQK-{FITC′}

T14: FITC-labeled LA peptide LAKLDEESILKQK-FITC
T14 peptide: LAKLDEESILKQK-{FITC′}

T15: FITC-labeled FA peptide FAKLDEESILKQK-FITC
T15 peptide: FAKLDEESILKQK-{FITC′}

T16: LI
T16 construct: also called LIFAGK
T16 chain: LIFAGK

T17: IF
T17 construct: also called IFAGK
T17 chain: IFAGK

B1: PS545 (other)
chain: MSEPMTLPAIPQPRLKERTQRQPPYNVILLNDDDHSYEYVIAMLQVLFGYPREKGYQMAKEVDSTGRVILLTTTREHAELKQEQIHAFGPDPLMARCQGSMTAVIEPAV
B2: IR peptide IRKLDEESILKQK (XXKLDEESILKQK, XX = IR) (peptide)
peptide: IRKLDEESILKQK
notes: Biolayer interferometry
B3: PS551 (other)
chain: MPSAAPAKPKTKRQSRTQGMPPYNVVLLDDDDHTYGYVIEMLNKVFGHPPEKGFELATEVDKNGRVIVMTTNLEVAELKRDEVHAFGPDPLMPRSKGSMSAVVERAG
B4: Kluyveromyces marxianus UBR1 (PS621) (other)
chain: T8 sequence with N6S, R17K, V47T, S54T, E75T, N77F, G80A, A81E, D83G
notes: UBR-streptavidin complex in fluorescence polarization
B5: Agrobacterium tumifaciens ClpS1 (atClpS1) (other)
chain: MIAEPICMQGEGDGEDGGTNRGTSVITRVKPKTKRPNLYRVLLLNDDYTPMEFVIHILERFFQKDREAATRIMLHVHQHGVGECGVFTYEVAETKVSQVMDFARQHQHPLQCVMEKK
notes: also called A. tumefaciens ClpS1; atClpS1 (WT)
B6: FITC-labeled RA peptide RAKLDEESILKQK-FITC (peptide)
peptide: RAKLDEESILKQK-{FITC′}
B7: RA peptide (N-terminal arginine, penultimate alanine; rest of sequence not given) (peptide)
peptide: RAKLDEESILKQK-{FITC′}
B8: Vombatus ursinus UBR-box domain (PS522) (other)
chain: MLCGKVFKSGETTYSCRDCAIDPTCVLCMNCFQSSVHKNHRYKMHTSTGGGFCDCGDTEAWKTGPFCTIHEP
B9: PS371 (other)
chain: MATETIERPRTRDPGSGLGGHWLVIVLNDDHNTFDHVAKTLARVIPGVTVDDGYRFADQIHQRGQAIVWRGPKEPAEHYWEQLQDAGLSMAPLERH
B10: Planctomycetia bacterium ClpS homolog (PS557) (other)
chain: MPTAASATESAIEDTPAPARPEVDGRTKPKRQPRYHVVLWNDDDHTYQYVVVMLQSLFGHPPERGYRLAKEVDTQGRVIVLTTTREHAELKRDQIHAFGYDRLLARSKGSMKASIEAEE
B11: PS558 (other)
chain: MTATTADPDRTTAEKTTKKARRSGQPKRQPRYHVILWNDNDHTYQYVVAMLQQLFGHPATTGLKLATEVDRTGRAVILTTTREHAELKRDQIHAFGADRLLARSKGAMSASIEPEAE

Numbering of substitutions follows the chain as printed. Primed or numbered codes have the meaning given here. Ends that are not written are not given here. FITC′ = not defined here

Experiment [1] has as its target T1, LA peptide LAKLDEESILKQK …. The experiment is described as follows: biolayer interferometry as in Example 12.
Experiment [2] has as its target T2, VA peptide VAKLDEESILKQK …. The experiment in a line: biolayer interferometry as in Example 12.
The target in experiment [3] is T3, F peptide FAKLDEESILKQK (XAKLDEESILKQK, …). The experiment is described as follows: biolayer interferometry as in Example 12.
In experiment [4] the target is T4, IA peptide IAKLDEESILKQK …. The experiment in a line: biolayer interferometry as in Example 12.
Experiment [5] concerns the target T5, ClpS from Thermosynochoccus elongatus …. The experiment in a line: biolayer interferometry.
Experiment [6] addresses T1, LA peptide LAKLDEESILKQK …. The experiment in a line: biolayer interferometry as in Example 12.
In experiment [7] the target is T2, VA peptide VAKLDEESILKQK …. The experiment is described as follows: biolayer interferometry as in Example 12.
The target in experiment [8] is T3, F peptide FAKLDEESILKQK (XAKLDEESILKQK, …). The experiment is described as follows: biolayer interferometry as in Example 12.
Experiment [9] has as its target T4, IA peptide IAKLDEESILKQK …. The experiment in a line: biolayer interferometry as in Example 12.
In experiment [10] the target is B6. The experiment in a line: fluorescence polarization titration with increasing concentration of UBR protein.
The target of experiment [11] is B7. The experiment is described as follows: fluorescence polarization.
Experiment [12] concerns the target T6, KA peptide KAKLDEESILKQK …. The experiment is described as follows: BLI heatmap, single-point screen.
Experiment [13] deals with LF peptide (N-terminal LF; rest of sequence not given). The experiment in a line: binder-on-chip single-molecule assay. Further details: unit not given here.
The target in experiment [14] is T18, YA peptide (N-terminal tyrosine, penultimate alanine; rest of sequence not given).
T18 construct: they may differ; also called tyrosine peptide
The experiment is described as follows: binder-on-chip single-molecule assay. Further details: unit not given here.

Experiment [15] concerns the target T19, FA peptide (N-terminal phenylalanine, penultimate alanine; rest of sequence not given).
T19 construct: they may differ; Dye- or FITC-labelled in some assays; also called phenylalanine peptide; N-terminal FA peptide
The experiment is described as follows: binder-on-chip single-molecule assay. Details: unit not given here.

Experiment [16] addresses T20, WA peptide (N-terminal tryptophan, penultimate alanine; rest of sequence not given).
T20 construct: they may differ; also called tryptophan peptide
The experiment in a line: binder-on-chip single-molecule assay. Details: unit not given here.

The target of experiment [17] is T7, MA. The experiment is described as follows: biolayer interferometry, response against 1/kdis.
Experiment [18] concerns the target T2, VA peptide VAKLDEESILKQK …. The experiment in a line: biolayer interferometry, response against 1/kdis.
Experiment [19] addresses T4, IA peptide IAKLDEESILKQK …. The experiment is described as follows: biolayer interferometry, response against 1/kdis.
Experiment [20] addresses T8, Kluyveromyces lactis UBR-box domain …. The experiment in a line: fluorescence polarization titration with increasing concentration of UBR protein.
The target is the same in experiment [21]. The experiment in a line: fluorescence polarization.
Experiment [22] deals with T6, KA peptide KAKLDEESILKQK …. The experiment is described as follows: biolayer interferometry single-point screen, 30 C.
For experiment [23], the target named is T9, RA peptide RAKLDEESILKQK …. The experiment in a line: biolayer interferometry single-point screen, 30 C.
The target in experiment [24] is T1, LA peptide LAKLDEESILKQK …. The experiment in a line: BLI heatmap.
The target of experiment [25] is T10, Y peptide YAKLDEESILKQK (XAKLDEESILKQK, …). The experiment is described as follows: BLI heatmap.
For experiment [26], the target named is T3, F peptide FAKLDEESILKQK (XAKLDEESILKQK, …). The experiment is described as follows: BLI heatmap.
For experiment [27], the target named is T11, FITC-labeled VA peptide …. The experiment is described as follows: fluorescence polarization, single point.
Experiment [28] deals with T12, FITC-labeled YA peptide …. The experiment is described as follows: fluorescence polarization, single point.
The target of experiment [29] is T13, FITC-labeled IA peptide …. The experiment is described as follows: fluorescence polarization, single point.
The target in experiment [30] is T14, FITC-labeled LA peptide …. The experiment is described as follows: fluorescence polarization, single point.
Experiment [31] concerns the target T15, FITC-labeled FA peptide …. The experiment is described as follows: fluorescence polarization, single point.
Experiment [32] has as its target T1, LA peptide LAKLDEESILKQK …. The experiment in a line: biolayer interferometry as in Example 12.
Experiment [33] concerns the target T2, VA peptide VAKLDEESILKQK …. The experiment in a line: biolayer interferometry as in Example 12.
Experiment [34] addresses T3, F peptide FAKLDEESILKQK (XAKLDEESILKQK, …). The experiment in a line: biolayer interferometry as in Example 12.
The target in experiment [35] is T4, IA peptide IAKLDEESILKQK …. The experiment is described as follows: biolayer interferometry as in Example 12.
The target in experiment [36] is T16, LI. The experiment in a line: 3-binder dynamic sequencing of [..]; binder assigned by the binding preference in Table 1.
Experiment [37] deals with T17, IF. Described as above.
For experiment [38], the target named is T1, LA peptide LAKLDEESILKQK …. The experiment is described as follows: biolayer interferometry as in Example 12.
In experiment [39] the target is T2, VA peptide VAKLDEESILKQK …. The experiment in a line: biolayer interferometry as in Example 12.
Experiment [40] addresses T3, F peptide FAKLDEESILKQK (XAKLDEESILKQK, …). The experiment is described as follows: biolayer interferometry as in Example 12.
Experiment [41] addresses T4, IA peptide IAKLDEESILKQK …. The experiment in a line: biolayer interferometry as in Example 12.

Regarding B1, the binding result is reported as “binds” in experiment [1], “binds” in experiment [2], “no binding” in [3] and “binds” in [4].
Regarding B2, the binding result in experiment [5] is “binds”.
Take B3: the binding result is “binds” in experiment [6], “binds” in experiment [7], “no binding” in experiment [8] and “binds” in experiment [9].
As to B4, the Kd was determined as 420 nM in [10] and 321 nM in experiment [11]. Also, the binding result in experiment [12] is “binds”.
Regarding B5, the Mean pulse width in experiment [13] is 0.3; in [14] it was 0.77; in [15] it was 0.66; in experiment [16], 0.39. Also, the “Median PW” value worked out at 0.18 in experiment [13], 0.4 in [14], 0.36 in experiment [15] and 0.24 in [16]. Moreover, the binding result in experiment [17], in experiment [18] and in [19] was “no binding” in each case.
Turning to B6, the affinity in experiment [20], expressed as Kd, was 460 nM.
In turn, B7 returned a Kd in experiment [21] of 403 nM.
Consider B8, for which the binding result in experiment [22] and in experiment [23] was “binds” in each case.
With B9, the binding result in experiment [24] is recorded as “binds”; in [25], “binds”; in experiment [26], “binds”; in experiment [27], “no binding”; in [28], “binds”; in experiment [29] it was “no binding”. In addition, the binding result in experiment [30] and in experiment [31] was “binds” throughout.
On to B10, for which the binding result is “binds” in experiment [32]; “binds” in [33]; “no binding” in experiment [34]; “binds” in [35]; “binds” in experiment [36]; “binds” in experiment [37].
As to B11, the binding result in [38] is “binds”; in experiment [39] it was “binds”; in experiment [40] it was “no binding”; in [41], “binds”.
